Assay results from patent US20170298096A1 (CANIMGUIDE THERAPEUTICS, published 2017).

Target: T1, His-tagged P3028 peptide (PGE73) (human)
T1 construct: albumin-derived peptide, in solution at 0.5 ug/mL; not shown: His-tag
T1 peptide: VFDEFKPLVEEPQNLIK
Test: PEPSCAN ELISA, peptide on card

KKLDYFFVKLSLFTER [SEQ ID NO: 312 KKLDYFFVKLSLFTER]
RAMPO Score: 425

KKLDTFFVKLSLRTER [SEQ ID NO: 371 KKLDTFFVKLSLRTER]
RAMPO Score: 502

KKLDTFVVKLSLFTER [SEQ ID NO: 325 KKLDTFVVKLSLFTER]
RAMPO Score: 527

KKLDTFFVKLQLFTER (also called 30678) [SEQ ID NO: 348 KKLDTFFVKLQLFTER]
RAMPO Score: 768

KKLDTFFVKLSLCTER [SEQ ID NO: 362 KKLDTFFVKLSLCTER]
RAMPO Score: 400

KKLDTFFVKLSIFTER [SEQ ID NO: 352 KKLDTFFVKLSIFTER]
RAMPO Score: 456

KKLDTPFVKLSLFTER [SEQ ID NO: 317 KKLDTPFVKLSLFTER]
RAMPO Score: 497

KKLDTFFVKTSLFTER [SEQ ID NO: 342 KKLDTFFVKTSLFTER]
RAMPO Score: 399

KKLDTFFVKLSWFTER [SEQ ID NO: 360 KKLDTFFVKLSWFTER]
RAMPO Score: 409

KKLDTFFVKLSLWTER [SEQ ID NO: 375 KKLDTFFVKLSLWTER]
RAMPO Score: 430

KKLDTFFVKLSLFNER [SEQ ID NO: 382 KKLDTFFVKLSLFNER]
RAMPO Score: 599

KKLDTFFVKYSLFTER [SEQ ID NO: 344 KKLDTFFVKYSLFTER]
RAMPO Score: 382

KKLDTFFVKLSLFPER [SEQ ID NO: 383 KKLDTFFVKLSLFPER]
RAMPO Score: 551

KKLDTFFVKASLFTER [SEQ ID NO: 332 KKLDTFFVKASLFTER]
RAMPO Score: 426

KKLDTFMVKLSLFTER [SEQ ID NO: 321 KKLDTFMVKLSLFTER]
RAMPO Score: 712

KKLDTFFVKLSNFTER [SEQ ID NO: 354 KKLDTFFVKLSNFTER]
RAMPO Score: 462

KKLDTFFVKLSLGTER [SEQ ID NO: 363 KKLDTFFVKLSLGTER]
RAMPO Score: 531

KKLDTFFVKLSLLTER [SEQ ID NO: 366 KKLDTFFVKLSLLTER]
RAMPO Score: 448

KKLDTFFVKSSLFTER [SEQ ID NO: 341 KKLDTFFVKSSLFTER]
RAMPO Score: 351

KKLDTNFVKLSLFTER [SEQ ID NO: 316 KKLDTNFVKLSLFTER]
RAMPO Score: 446

KKLDTFFVKLSSFTER [SEQ ID NO: 357 KKLDTFFVKLSSFTER]
RAMPO Score: 478

KKLDTFFVKLSLFGER [SEQ ID NO: 377 KKLDTFFVKLSLFGER]
RAMPO Score: 343

KKLDTFFVKLSLFMER [SEQ ID NO: 381 KKLDTFFVKLSLFMER]
RAMPO Score: 501

KKLDTFFVKFSLFTER [SEQ ID NO: 333 KKLDTFFVKFSLFTER]
RAMPO Score: 403

KKLDTFFGKLSLFTER [SEQ ID NO: 327 KKLDTFFGKLSLFTER]
RAMPO Score: 379

KKLDTFFVRLSLFTER [SEQ ID NO: 331 KKLDTFFVRLSLFTER]
RAMPO Score: 374

KKLDTFFVKLSLPTER [SEQ ID NO: 369 KKLDTFFVKLSLPTER]
RAMPO Score: 696

KKLDTFFVKLSLTTER [SEQ ID NO: 373 KKLDTFFVKLSLTTER]
RAMPO Score: 494

KKLDTFFVKLSMFTER [SEQ ID NO: 353 KKLDTFFVKLSMFTER]
RAMPO Score: 499

KKLDTFFVKRSLFTER [SEQ ID NO: 340 KKLDTFFVKRSLFTER]
RAMPO Score: 439

KKLDTFFLKLSLFTER [SEQ ID NO: 328 KKLDTFFLKLSLFTER]
RAMPO Score: 411

KKLDTFFVKLNLFTER [SEQ ID NO: 347 KKLDTFFVKLNLFTER]
RAMPO Score: 451

KKLDTFFVKLSLATER [SEQ ID NO: 361 KKLDTFFVKLSLATER]
RAMPO Score: 525

KKLDTFQVKLSLFTER [SEQ ID NO: 322 KKLDTFQVKLSLFTER]
RAMPO Score: 511

KKLDTFFVKLSLITER [SEQ ID NO: 365 KKLDTFFVKLSLITER]
RAMPO Score: 468

KKLDTMFVKLSLFTER [SEQ ID NO: 315 KKLDTMFVKLSLFTER]
RAMPO Score: 467

KKLDTFFVKISLFTER [SEQ ID NO: 335 KKLDTFFVKISLFTER]
RAMPO Score: 415

KKLDTFFVKGSLFTER [SEQ ID NO: 334 KKLDTFFVKGSLFTER]
RAMPO Score: 495

KKLDTFLVKLSLFTER [SEQ ID NO: 320 KKLDTFLVKLSLFTER]
RAMPO Score: 517

KKLDTFFVKLSLHTER [SEQ ID NO: 364 KKLDTFFVKLSLHTER]
RAMPO Score: 1050

KKLDTFFVKLHLFTER [SEQ ID NO: 345 KKLDTFFVKLHLFTER]
RAMPO Score: 535

KKLDTFFVKLSRFTER [SEQ ID NO: 356 KKLDTFFVKLSRFTER]
RAMPO Score: 483

KKLDTFFVKLSVFTER [SEQ ID NO: 359 KKLDTFFVKLSVFTER]
RAMPO Score: 545

KKLDTFFVKLSLFLER [SEQ ID NO: 380 KKLDTFFVKLSLFLER]
RAMPO Score: 360

KKLDTFSVKLSLFTER [SEQ ID NO: 323 KKLDTFSVKLSLFTER]
RAMPO Score: 700

KKLDTFFVKLSLVTER [SEQ ID NO: 374 KKLDTFFVKLSLVTER]
RAMPO Score: 446

KKLDTFFRKLSLFTER [SEQ ID NO: 330 KKLDTFFRKLSLFTER]
RAMPO Score: 365

KKLDTFFVKLSLFIER [SEQ ID NO: 379 KKLDTFFVKLSLFIER]
RAMPO Score: 375

KKLDTFFVKLSLQTER [SEQ ID NO: 370 KKLDTFFVKLSLQTER]
RAMPO Score: 1140

KKLDTIFVKLSLFTER [SEQ ID NO: 314 KKLDTIFVKLSLFTER]
RAMPO Score: 466

KKLDTVFVKLSLFTER [SEQ ID NO: 319 KKLDTVFVKLSLFTER]
RAMPO Score: 547

KKLDTFFVKLSAFTER [SEQ ID NO: 350 KKLDTFFVKLSAFTER]
RAMPO Score: 462

KKLDTFFPKLSLFTER (also called 32251) [SEQ ID NO: 329 KKLDTFFPKLSLFTER]
RAMPO Score: 456

KKLDTAFVKLSLFTER [SEQ ID NO: 313 KKLDTAFVKLSLFTER]
RAMPO Score: 575

KKLDTTFVKLSLFTER [SEQ ID NO: 318 KKLDTTFVKLSLFTER]
RAMPO Score: 481

KKLDTFFVKPSLFTER [SEQ ID NO: 338 KKLDTFFVKPSLFTER]
RAMPO Score: 436

KKLDTFFVKLSQFTER [SEQ ID NO: 355 KKLDTFFVKLSQFTER]
RAMPO Score: 651

KKLDTFFVKLSLMTER (also called 30677) [SEQ ID NO: 367 KKLDTFFVKLSLMTER]
RAMPO Score: 1190

KKLDTFFVKNSLFTER [SEQ ID NO: 337 KKLDTFFVKNSLFTER]
RAMPO Score: 365

KKLDTFFVKLSLFHER [SEQ ID NO: 378 KKLDTFFVKLSLFHER]
RAMPO Score: 463

KKLDTFFVKLSTFTER [SEQ ID NO: 358 KKLDTFFVKLSTFTER]
RAMPO Score: 437

KKLDTFFVKLSLSTER [SEQ ID NO: 372 KKLDTFFVKLSLSTER]
RAMPO Score: 635

KKLDTFFVKMSLFTER [SEQ ID NO: 336 KKLDTFFVKMSLFTER]
RAMPO Score: 460

KKLDTFFVKVSLFTER [SEQ ID NO: 343 KKLDTFFVKVSLFTER]
RAMPO Score: 658

KKLDTFFVKLTLFTER [SEQ ID NO: 349 KKLDTFFVKLTLFTER]
RAMPO Score: 520

KKLDTFTVKLSLFTER [SEQ ID NO: 324 KKLDTFTVKLSLFTER]
RAMPO Score: 517

KKLDTFFVKQSLFTER [SEQ ID NO: 339 KKLDTFFVKQSLFTER]
RAMPO Score: 470

KKLDTFFVKLSLNTER [SEQ ID NO: 368 KKLDTFFVKLSLNTER]
RAMPO Score: 862

KKLDTFFVKLSLFFER [SEQ ID NO: 376 KKLDTFFVKLSLFFER]
RAMPO Score: 348

KKLDTFFVKLSHFTER [SEQ ID NO: 351 KKLDTFFVKLSHFTER]
RAMPO Score: 460

KKLDTFFFKLSLFTER [SEQ ID NO: 326 KKLDTFFFKLSLFTER]
RAMPO Score: 358

KKLDTFFVKLMLFTER [SEQ ID NO: 346 KKLDTFFVKLMLFTER]
RAMPO Score: 744
